The numbers were not newly measured in paper PMC6277024, which cites them from elsewhere.

pKd: −log10 of the molar value.

The series deals with WRESAI hexapeptide.

For the substance Tip-1 PDZ (from UniProt O14907), the pKd was 8.00.
